Assay results as given in the DeepSol protein solubility set.

Experiment: soluble on expression in E. coli; label from the status in PepcDB or PDB records

Soluble on expression in E. coli, not soluble:
MGSDKIHHHHHHMKLQDFLGKDEKWSFDAIAEDADLARQIQIVLIGLVLLEPPADGKFGPVSVIALKKFQELTKTEESGFLGAVTAKKLIETKIDDLPKPPLKLGNDIASKIVKYMIAKGYQVFTNPKEYNIVYIEGMNGDWTLNSDTPNQFNDRRIVIEVVNGIPKIVDHWEATTEPGKYYTYNPMNPKGAARIQFGQYKAWAVGTHGTAEPHEALVQVGDITVCRDFNQDFKRTGDKLDTGDNFYVNQHYGFDFPQNDIRLASAGCLVGRTREGHREFMAIVKQDRRYVANRKYTFYTTVIPGDDLLKTFPG
MGSDKIHHHHHHMKLQQLEYFMAVSKYASFTLASQKLHTSQPYLSTQLKELERELGASLILRDKKHCRLSPAGEVVAKRTEMIFALIKEAQEEINELVTQGSTTTIRIGTNLIDIDKAFGEVLLLFNQSYPYVSIDFKYYYDLETALETDLIDIGIGIFLDTSIPLEKELIYTESYLLCVNKNHPLAHADSVTIDEIRSLPFAAYSDQVYEKKVFKRWERKINWENRQIVIELPSLHLVLDMVQREKACSILPYSLTDELNRRNLVGIPLEDSPERAIYLVQNNHHGHCEAHRYLFEQLRYLF
MGSDKIHHHHHHMKLSLVISTSDAAFDALAFKGDLRKGMELAKRVGYQAVEIAVRDPSIVDWNEVKILSEELNLPICAIGTGQAYLADGLSLTHPNDEIRKKAIERVVKHTEVAGMFGALVIIGLVRGRREGRSYEETEELFIESMKRLLELTEHAKFVIEPLNRYETDFINTIDDALRILRKINSNRVGILADTFHMNIEEVNIPESLKRAGEKLYHFHVADSNRWAPGCGHFDFRSVFNTLKEIGYNRYVSVECLPLPGGMEEAAEIAFKTLKELIIKLT
MGSDKIHHHHHHMKNLLDLSYEELVTEITNLGLERYRADQILDWVFDKKVNNFDEMTNLSKKHRALLKEHFSISFLKLLDKKVSRIDGTTKFLWELEDGNTIESVMLFHPDRITACISTQVGCPVKCIFCATGMSGFVRNLTTGEIVAQILSMEKEEKKKIGNVVYMGMGEPLLNYENTIKSIRILNHKKMGNIGIRRITISTVGIPDRIIQLAEEGLDVKLALSLHAPTNFKRDQLVPLNKKYSIEEILNAVKIYQRKTGNRVTIEYVLIRGINDEISDAKKLAEILRNMKVFVNLIPVNPTVEGLRRPSRERLLTFKRILLENGIEAEIRREKGTDIEAACGQLRLKRIKSRS
MGSDKIHHHHHHMKNLLVVLLSLVSVLSFSVSLNDVLQTALASSTDYQIAQISLESATMDYEKAKLEATNKRSELSAELSYYNNLQSYRNSLKSAYQDVLGRIFNLLTADLSYEIAQLNFENAQEDYKTSQELFKKNLISENDLKDSELTLEEASNNLLSAQKDLEEAQKDYEEIFSVEVSEIELPLIDYQNLVGEDEYLDNLSSVKIAELNMKIAEYDLNNLSASASKYEQKKAELNYKKSKMNYDEALKEAKDSYKSTLDSLEIAFLNLKVLKEKIELNENILKDYQERYEKGLISKKELNTQKINLLNIKKNYLNSLRSYYISIVNLLIDAGKEVSF
MGSDKIHHHHHHMKNVIKFYEKGSIEILYGKSSHSFPLHSHECFCVGAITKGSALFTINNTKCLLEESMVFIIPPNTGISITANSQYDYITICFKNELKKQVEHILFNKFFLKIKSNDEIFNLCDIFKENNNEKQLLNSILILINSTIATNSLVMETSTNNTVLLICEYIKQTAAKNFSLDTLAESFYLSKYHLIRMFKKEMGVTPYQYYIQAKMGIIRRQIFNGKSETDLAINLNLSDSSHLCKIFKRQMGISIQAYKKNLIRK
MGSDKIHHHHHHMKPTLFVLAAGMGSRYGSLKQLDGIGPGGDTIMDYSVYDAIRAGFGRLVFVIRHSFEKEFREKILTKYEGRIPVELVFQELDRLPEGFSCPEGREKPWGTNHAVLMGRDAIREPFAVINADDFYGRNGFEVLARKLMTLEGKQGEYCMVGYRVGNTLSESGGVSRGVCQVDEKHLLTGVVERTGIERTDGTISFRDETGKICTLAEDAPVSMNMWGFTPDYFDYSEELFINFLNAHGQEPKSEFFIPFVVNDLIRSGRASVEVLDTTARWFGVTYSDDRPGVVAKLRELTEAGEYPTKLF
MGSDKIHHHHHHMKPYIVAHMMSSLDGRSLTDGWHLDYASDLYETTAATFEADGWICGRVTMQEISHGKDYPAGLASGAVPRTDHFVERNADQYAISIDPQGRVAWKSNTALKSHVIEVLTEQVADDYLAYLQSIGVSYVFGGKTGIDLDKVVQTLARELGVKKLIVEGGSHVSGAFVNAGLVDEVSVLILPLVDGRSEHPSSFEVAMEKWQAPAYLKLTSVEKTDHDAVWLRYTKA
MGSDKIHHHHHHMKQKLRLIQRRTVHYLLVVTYWISKFFPVQTKKVVFATYRSDKLVDNFRAVYDELESRELGFQYVFLLKRFPQNLIGQIKYVFHMMRATYELATARYFIIDDYYYPVYVSKLRKGTEVIQLWHACGAFKKFGYSVLDKSYSPDDDYLKMVAIHRNYSKVYVSGEACIGPFAEAFGMDSTRIHPLGVPRTDQLLNRERQVQIEHKLYDRYPEWRSKKLILLAPTFRGNGQTTAHYDQELDFQQFREQLGPDHILLLRMHPFVLNRPVVPAEFSNQIIDMTDYPDINDLMQVADILVTDYSSVIFEFALLKKPIILLVNDLNAYREERDFYFPYESFVPGPIVSSFNDVISWIKAGQFEPEQIEDFAARFFTYQDGLATKRIVNHILTGALPDAPMRPEERKTV
MGSDKIHHHHHHMKQLVELERSSLGPQEAPVRLALSPDAGSPRDPQWQGPSGGFAINGKFASQRITGVQRVGYELAVAFQHLFPHGTDLPLLVPPNARTDVVFPNAKVIGRRLKGSLWEQFSLPFATGRRTLLSLCNMGPLFVRRQVVMVHDVAIYDLPQNYSWKYRLWYRVALSLLKRNVRHIVTVSEFSKKRIVERLGIDASRISVVLNGVDHFEKISPDTAILSRLNLQKDGYVLAVGNLSVGKNLPRILTAVERLNDSHDWKFVVVGGCDLRVFNSGAKVGFDLSKNIVPAGFVSDGELRALYENAACFLFPSLYEGFGLPPLEAMSCGCPVIVSREASLPEVCGDAALYCDAYSVDDIVDKVTQMMADPAARETWRQRGREHARGFRWERSARQLLGILERELAGEVAPPVHAQSAQSDQSAPSRV
MGSDKIHHHHHHMKSNGHATRLRTTPSLGGQSHDTRARMIEAAIEVFGSVGYDGATTRQLAERAGVNQAAIPYHFGGKRELYVAAAQAIADYMRSRIEPLIDELRTASVDPVGHIDAVVMRFFQFIAGDEEPEAWTVFFVRCERDADDAFRIIYYQSVARFQAALIAEVAAATGRSPDDEDLKVRVAVVLGAISNFRTLRNVMLSSLGWDTFDAERKLTVETAVRRLALAELLGIHADAPSDVHPPLGSASGAQPSPTARP
MGSDKIHHHHHHMKSYKNYIFDFYGTLVDIRTDENKLEVWNQLTQIYNAFGCSYRPRQLKNAYHRFVEEAERFLAETVSYQYVEIDLETLFIRLLTDAPNENQSTNKPTDLETFGQVVATIFRVLSREKLEAYENTLTSLQTLAARAARLFILSNAQRIFTQAEIEQTGCADLMEKIYISSDFKMKKPEPAFLQLVLEENNLDVKETVMVGNDLTSDIAIAHELGMDSILLNTFPYSQEEIDSYRRLGWNFEVVGDIAELL
MGSDKIHHHHHHMKTKHILFGIFISSAVTSCNSIKGSGNVVTSIRPVQEFSGIISSGSFNMYLTQSAVQEVKIIADDNVLQYIETNVRDGILTVTFKDKVHIKNSTRLDIYVSGPVIEKINLEGSGNIQTTNRLHSNNLVLVLNGSGKMVAEDACETAIVQLNGSGNITLTGKAKNQTASVSGSGNVNASGFTTENTTASLSGSGSIGLYATESLHASLSGSGSIRYSGNPASVKKEVSGSGMVESR
MGSDKIHHHHHHMKTKPIDLYILSGFLGSGKSTLLKRLIEQEQARGNKIGVLMNELGEVSVDSSIVPKDTPLKEMLNGCICCTIQGELSAQLQSFIEEYELDVIFIEATGAAHPLEVVEACTHPVFAGQVRVRGVLTVVNARQWIEGKMSIKIKKLMEAQVTFADLIVVNKVDQVTDAQVEQLTTSIKDLNPKAINIPTTFSNLEPVHSERLHHAAAPSSRGSESKAHVHEHLHLRTMAVPIQHPVDRMELLSFLKGIQGQIYRVKGFIHLKESPGLFLFNYAYGDPMFERHRTDQAYAPVLVFIGDDLDHQAIEEGLQQLQQ
MGSDKIHHHHHHMKTLVICSGGLDSVSLAHKVAAEHDLIGLISFDYGQRHRKELDFAARAATRLGVPHDLIDMRQIGAHLSGSALTDDVDVPDGHYAEDTMKITVVPNRNAIMLAIAFGIAAAKQADAVATAVHGGDHFIYPDCRPGFTQAFEAMQAQALDGYASVRLYTPFVHEPKSAIVTEGERHNTPFADTWSCYKGGEVHCGRCGTCVERREAFHLAGVADPTPYADPEFWRAAVEGR
MGSDKIHHHHHHMKVELDVSELAVGMYVVEITQPKNKFQLAEQGWITKQQVIDGFKRKGIEKLLVDSSKRRPQPSEPAKVNQATMDKQAAQLTKTPGLFKQRLSQAKQLFNESKAIQRRLFDDAQAGVPLTLEPVRRVTDQSIEAIFDNPDALACVINIRHKDQYLLEHSVAVSVLMTIFACYLKIDKEIVSELAIGAFLHDVGKIMIPPSILDKPGRLTTEEFEVMKTHANHSIRIIENTPNISPLSLEVARLHHEKLNGKGYPFGVSAEAISRFGRMIAICDIFDALTANRCYKAGYPQVKAFSILRALGENNELDAELVDHFIKCMGVYPVGSLVQLESNRLAIVESHNHQDPIRPKVKPFYSLNPNHFEISANIDLAAMRDDIIVKNVRADDFDLDMDEIIEFLSHEG
MGSDKIHHHHHHMKVICITQARMGSSRLPGKVLKIIGTRPMLEYHVRRVAKSKLINHHIIATSNQENDLPIVEYCQQNNIDYYRGNETDVLGRFYETALSVHAEPDDIIIRLTGDCPLICPQLIDDAIKLQFSGESQQYTHVSLAYFPRGFDVEVFRMRSLSEAYFKALAPAQREHVTLYLYSKPDALIVPVTLHGNPSWSHFRLCVDEQDDFLLVEQLICRLGEQWLDAGPRQICELLEGNPQLVTINAHIHQRTAH
MGSDKIHHHHHHMKVILHIGAHRCATRSFQNYMTRKSDTLSQYGIAFMGPERTRNGLLHGIQPGAISVTGRDPMARARGRIALQLAGLQNAGTASVVISDASMLQPLEQCFALGALYPAAGEHLARLDHAFDGAVSDVMLNIRSPEMFWASALAVRLEHSLRMPNAATLSRIAEATRSWRDVIQDIYCAMPGARIRVFPYEVFATQPEAQLSAVTGVDCPHARGAFRLNASARLPELRAELPPRLAKLLPEDEGRWMPFSEAEAARLRESYYDDMMWLVGGADGLAELVEDPNKADATATPPAPDLVVQEDLTRGRMHDPDTGRLAGTG
MGSDKIHHHHHHMKVKVGVVGATGEVGRTMVKVLEEFNVPVTELRLFASERSVGKEIEFKGEKFKVELLTEESMKWKCDYFLFSAGASVSRKFAPIAAENGVTVIDNSSAFRMEKEIPLVVPEVNAYLLKGYTGIIANPNCSTIQMILSIYKLHEVYGIEEIFVSTYQSVSGAGHKGIEELLAQERGENVMKVFPKPIHRNVIPLIGDIQENLFSQEEMKMVNETRKILNDYSIRVYPTTVRVPVLYGHSEAIMVRLKKPYESLEKVREVIASGEDVVVTDDLITPVDVAGKNETYVCRLRATDERSILFWNVADNIRVGAATNAVRILLKHAEMNGKV
